Experiments:
[1] = target: GP075m, variant of the putative baseplate wedge protein GP075 with the substitution T239A (phage K8-T239A), His-tagged (Pseudomonas phage K8-T239A (derivative of phage K8)); assay: SEC-MALS; 100 ul of protein solution (0.15-4.05 mg/ml) on a WTC-015S5 column; 100 mM NaCl, 50 mM Tris-HCl, 1 mM EDTA, 0.02% NaN3, pH 7.4; 0.4 ml/min; BSA as control; self-polymerization degree
[2] = target: putative baseplate wedge protein GP075 of Pseudomonas phage K8, His-tagged (Pseudomonas phage K8); assay: as above

Row | Substance | molar mass [1] | molar mass [2]
1 | GP075m, variant of the putative baseplate wedge protein GP075 with the substitution T239A (phage K8-T239A), His-tagged (natural protein) | 185 | –
2 | putative baseplate wedge protein GP075 of Pseudomonas phage K8, His-tagged (natural protein) | – | 81.2

— article PMC9887876
